First the molecules themselves.
B1: Histone-lysine N-methyltransferase SETD2, residues 2382 to 2430; numbered along this chain, Q9BYW2 (parent)
chain: SPPKPKTIVLPPNWKTARDPEGKIYYYHVITRQTQWDPPTWESPGDDAS

± gives the uncertainty stated by the source.

In this data set the parent is B1. The data set can be described thus: abundance fitness (aPCA) (normalised: wild type 0, dead -1); higher = more abundant; growth selection in yeast, the domain comes from the species named. Conditions: Homo sapiens.
SPPKPKTMVLPPNWKTARDPEGKIYYYHVITRQTQWDPPTWESPGDDAS: the abundance fitness is 0.179 ± 0.096.

Consider SPPKPKTLVLPPNWKTARDPEGKIYYYHVITRQTQWDPPTWESPGDDAS, for which the abundance fitness worked out at 0.165 ± 0.035. The figure for SPPKPKTPVLPPNWKTARDPEGKIYYYHVITRQTQWDPPTWESPGDDAS is -0.282 ± 0.098; for SPPKPKTTVLPPNWKTARDPEGKIYYYHVITRQTQWDPPTWESPGDDAS it is 0.021 ± 0.034; for SPPKPKTNVLPPNWKTARDPEGKIYYYHVITRQTQWDPPTWESPGDDAS it is 0.112 ± 0.075. The figure for SPPKPKTQVLPPNWKTARDPEGKIYYYHVITRQTQWDPPTWESPGDDAS is -0.056 ± 0.065. In the case of SPPKPKTFVLPPNWKTARDPEGKIYYYHVITRQTQWDPPTWESPGDDAS, the abundance fitness is -0.021 ± 0.086.

As for SPPKPKTAVLPPNWKTARDPEGKIYYYHVITRQTQWDPPTWESPGDDAS, the abundance fitness is -0.1 ± 0.058. The figure for SPPKPKTRVLPPNWKTARDPEGKIYYYHVITRQTQWDPPTWESPGDDAS is 0.06 ± 0.04; for SPPKPKTGVLPPNWKTARDPEGKIYYYHVITRQTQWDPPTWESPGDDAS it is 0.037 ± 0.041; for SPPKPKTWVLPPNWKTARDPEGKIYYYHVITRQTQWDPPTWESPGDDAS it is 0.001 ± 0.032. The figure for SPPKPKTYVLPPNWKTARDPEGKIYYYHVITRQTQWDPPTWESPGDDAS is -0.108 ± 0.092. As for SPPKPKTVVLPPNWKTARDPEGKIYYYHVITRQTQWDPPTWESPGDDAS, the figure is 0.201 ± 0.038.

SPPKPKTCVLPPNWKTARDPEGKIYYYHVITRQTQWDPPTWESPGDDAS: the abundance fitness was found to be 0.105 ± 0.067. As for SPPKPKTDVLPPNWKTARDPEGKIYYYHVITRQTQWDPPTWESPGDDAS, the figure is -0.164 ± 0.095; as for SPPKPKTKVLPPNWKTARDPEGKIYYYHVITRQTQWDPPTWESPGDDAS, 0.03 ± 0.034; as for SPPKPKTEVLPPNWKTARDPEGKIYYYHVITRQTQWDPPTWESPGDDAS, -0.096 ± 0.062. For the variant SPPKPKTIKLPPNWKTARDPEGKIYYYHVITRQTQWDPPTWESPGDDAS, the abundance fitness amounted to 0.022 ± 0.042. As for SPPKPKTITLPPNWKTARDPEGKIYYYHVITRQTQWDPPTWESPGDDAS, the figure is 0.123 ± 0.033; as for SPPKPKTIMLPPNWKTARDPEGKIYYYHVITRQTQWDPPTWESPGDDAS, 0.228 ± 0.08.

For the variant SPPKPKTILLPPNWKTARDPEGKIYYYHVITRQTQWDPPTWESPGDDAS, the abundance fitness is -0.075 ± 0.046. Regarding SPPKPKTIYLPPNWKTARDPEGKIYYYHVITRQTQWDPPTWESPGDDAS, the abundance fitness is -0.362 ± 0.14. As for SPPKPKTIGLPPNWKTARDPEGKIYYYHVITRQTQWDPPTWESPGDDAS, the figure is -0.167 ± 0.037. As for SPPKPKTISLPPNWKTARDPEGKIYYYHVITRQTQWDPPTWESPGDDAS, the figure is -0.093 ± 0.056; as for SPPKPKTIELPPNWKTARDPEGKIYYYHVITRQTQWDPPTWESPGDDAS, -0.255 ± 0.09. SPPKPKTICLPPNWKTARDPEGKIYYYHVITRQTQWDPPTWESPGDDAS: the abundance fitness was 0.084 ± 0.09. With SPPKPKTINLPPNWKTARDPEGKIYYYHVITRQTQWDPPTWESPGDDAS, the abundance fitness turned out to be 0.21 ± 0.11. For the variant SPPKPKTIALPPNWKTARDPEGKIYYYHVITRQTQWDPPTWESPGDDAS, the abundance fitness is -0.187 ± 0.045. The figure for SPPKPKTIILPPNWKTARDPEGKIYYYHVITRQTQWDPPTWESPGDDAS is 0.132 ± 0.075. Take SPPKPKTIPLPPNWKTARDPEGKIYYYHVITRQTQWDPPTWESPGDDAS: the abundance fitness is -0.538 ± 0.15. Turning to SPPKPKTIQLPPNWKTARDPEGKIYYYHVITRQTQWDPPTWESPGDDAS, the abundance fitness was -0.097 ± 0.054. On to SPPKPKTIHLPPNWKTARDPEGKIYYYHVITRQTQWDPPTWESPGDDAS, for which the abundance fitness is -0.068 ± 0.095. As for SPPKPKTIWLPPNWKTARDPEGKIYYYHVITRQTQWDPPTWESPGDDAS, the figure is -0.24 ± 0.07.

In the case of SPPKPKTIFLPPNWKTARDPEGKIYYYHVITRQTQWDPPTWESPGDDAS, the abundance fitness was 0.049 ± 0.086.

For the variant SPPKPKTIDLPPNWKTARDPEGKIYYYHVITRQTQWDPPTWESPGDDAS, the abundance fitness stood at 0.486 ± 0.089. As for SPPKPKTIRLPPNWKTARDPEGKIYYYHVITRQTQWDPPTWESPGDDAS, the figure is 0.025 ± 0.044; as for SPPKPKWIVLPPNWKTARDPEGKIYYYHVITRQTQWDPPTWESPGDDAS, -0.462 ± 0.095; as for SPPKPKYIVLPPNWKTARDPEGKIYYYHVITRQTQWDPPTWESPGDDAS, -0.155 ± 0.15. As for SPPKPKTIVDPPNWKTARDPEGKIYYYHVITRQTQWDPPTWESPGDDAS, the figure is -0.489 ± 0.15.

In the case of SPPKPKTIVHPPNWKTARDPEGKIYYYHVITRQTQWDPPTWESPGDDAS, the abundance fitness is -0.255 ± 0.1. As for SPPKPKTIVVPPNWKTARDPEGKIYYYHVITRQTQWDPPTWESPGDDAS, the figure is -0.242 ± 0.042; as for SPPKPKTIVSPPNWKTARDPEGKIYYYHVITRQTQWDPPTWESPGDDAS, -0.684 ± 0.046. Take SPPKPKTIVMPPNWKTARDPEGKIYYYHVITRQTQWDPPTWESPGDDAS: the abundance fitness was -0.314 ± 0.1. The figure for SPPKPKTIVGPPNWKTARDPEGKIYYYHVITRQTQWDPPTWESPGDDAS is -0.564 ± 0.035. On to SPPKPKTIVRPPNWKTARDPEGKIYYYHVITRQTQWDPPTWESPGDDAS, for which the abundance fitness was -0.647 ± 0.06. The figure for SPPKPKTIVAPPNWKTARDPEGKIYYYHVITRQTQWDPPTWESPGDDAS is -0.759 ± 0.072; for SPPKPKTIVQPPNWKTARDPEGKIYYYHVITRQTQWDPPTWESPGDDAS it is -0.529 ± 0.32. Consider SPPKPKTIVTPPNWKTARDPEGKIYYYHVITRQTQWDPPTWESPGDDAS, for which the abundance fitness was -0.431 ± 0.11.

SPPKPKTIVFPPNWKTARDPEGKIYYYHVITRQTQWDPPTWESPGDDAS: the abundance fitness is -0.142 ± 0.1. Take SPPKPKTIVKPPNWKTARDPEGKIYYYHVITRQTQWDPPTWESPGDDAS: the abundance fitness is -0.553 ± 0.2. The figure for SPPKPKTIVIPPNWKTARDPEGKIYYYHVITRQTQWDPPTWESPGDDAS is -0.026 ± 0.12; for SPPKPKTIVNPPNWKTARDPEGKIYYYHVITRQTQWDPPTWESPGDDAS it is -0.46 ± 0.15; for SPPKPKTIVCPPNWKTARDPEGKIYYYHVITRQTQWDPPTWESPGDDAS it is -0.191 ± 0.059.
